According to article PMC8776769, “Structure and mechanism of the RNA dependent RNase Cas13a from Rhodobacter capsulatus”:

Target: T1, RcCas13a (Rhodobacter capsulatus, UniProt D5AUW0 1-1285)
T1 sequence: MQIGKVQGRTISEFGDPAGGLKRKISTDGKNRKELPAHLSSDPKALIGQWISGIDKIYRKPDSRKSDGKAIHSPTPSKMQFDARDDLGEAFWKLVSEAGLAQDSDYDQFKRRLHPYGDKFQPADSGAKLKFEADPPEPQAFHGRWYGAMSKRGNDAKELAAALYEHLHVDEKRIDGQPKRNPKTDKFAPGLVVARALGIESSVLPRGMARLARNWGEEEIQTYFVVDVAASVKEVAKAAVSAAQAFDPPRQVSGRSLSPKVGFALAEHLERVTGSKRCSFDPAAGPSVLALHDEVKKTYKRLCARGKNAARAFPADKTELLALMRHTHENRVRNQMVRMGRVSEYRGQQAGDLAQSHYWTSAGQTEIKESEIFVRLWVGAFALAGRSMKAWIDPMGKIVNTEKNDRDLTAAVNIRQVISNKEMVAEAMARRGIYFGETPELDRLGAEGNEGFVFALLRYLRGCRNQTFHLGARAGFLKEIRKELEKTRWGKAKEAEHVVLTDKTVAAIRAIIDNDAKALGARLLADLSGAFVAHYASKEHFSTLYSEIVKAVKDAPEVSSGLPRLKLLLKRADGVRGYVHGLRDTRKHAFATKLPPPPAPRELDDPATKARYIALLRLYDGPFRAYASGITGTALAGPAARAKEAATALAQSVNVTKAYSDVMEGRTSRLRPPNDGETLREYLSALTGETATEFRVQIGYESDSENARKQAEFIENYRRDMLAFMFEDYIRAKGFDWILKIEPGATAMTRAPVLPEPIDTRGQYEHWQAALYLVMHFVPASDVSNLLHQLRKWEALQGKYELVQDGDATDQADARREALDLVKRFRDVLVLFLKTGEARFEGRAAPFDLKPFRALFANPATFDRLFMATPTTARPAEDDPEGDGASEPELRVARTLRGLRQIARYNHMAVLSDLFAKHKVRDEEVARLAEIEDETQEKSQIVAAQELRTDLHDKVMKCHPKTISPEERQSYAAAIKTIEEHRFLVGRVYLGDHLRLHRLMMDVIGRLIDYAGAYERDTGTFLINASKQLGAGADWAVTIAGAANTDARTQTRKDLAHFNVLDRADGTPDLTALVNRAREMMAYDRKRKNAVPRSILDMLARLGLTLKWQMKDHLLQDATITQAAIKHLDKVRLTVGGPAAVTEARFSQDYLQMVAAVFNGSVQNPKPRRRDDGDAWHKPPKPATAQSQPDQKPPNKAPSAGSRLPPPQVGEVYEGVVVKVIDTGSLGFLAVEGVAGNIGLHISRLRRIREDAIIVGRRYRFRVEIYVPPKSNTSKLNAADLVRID
Assay: X-ray crystal structure (2.1 A); binary complex, no target RNA; Complex co-purified by Ni affinity and SEC: 50 mM Hepes pH 8.0, 500 mM NaCl, 10% glycerol, 1 mM DTT, 4-8 C; crystallization conditions not in material
Conditions: protein: recombinant; tags: C-terminal His6, not removed for the crRNA complex; hairpin

B1: crRNA for crystallization (structured_RNA)
RNA: GCCUCACAUCACCGCCAAGACGACGGCGGACUGAACCUUCAUUACCUCUGUUUG
binding result: binds
